Measurements reported in the nanobody polyreactivity screen of Harvey et al. (2022).

Assay: yeast display, Sf9 membrane polyspecificity reagent, FACS + sequencing; frameworks hold sequencing errors
Method in brief: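 A nanobody's polyreactivity label depends on the gate it was sorted from. Yeast display cells were stained with 10% biotinylated, detergent-solubilized Sf9 membrane reagent for 1 hour at 4 °C, enriched on streptavidin microbeads and sorted by FACS. The low and high (top ~1%) gates were set on anti-HA fluorescence for expression and streptavidin fluorescence for reagent binding.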
In the case of “QVQLVESGGGLVQAGGSLRLSCAASGRTLVSNAMGWYRQAPGKERELVARISYRGGSTYYADSVKGRFTISRDNAKNTVYLQMNSLKPEDTAVYYCAAGVRGSGRRMEYWGQGTQVTVSS”, the “polyreactivity (PSR sort gate)” value is reported as “high polyreactivity”.
For “QVQLVESGGGLVQAGGSLRLSCAASGRTLVYYAMGWYRQAPGKERELVAAITSVGSTNYADSVKGRFTISRDNAKNTVYLQMNSLKPEDTAVYYCAVRRVVARYDHWGQGTQVTVSS”, the “polyreactivity (PSR sort gate)” value was “low polyreactivity”.
With “QVQLVESGGGLVQAGGSLRLSCAASGRTLWSYVMGWYRQAPGKERELVAAITSGGTTYYADSVKGRFTISRDKAKNTVYLQMNSLKPEDTAVYYCAAGKYYLRLLPYGYWGQGTQVTVSS” the “polyreactivity (PSR sort gate)” value was “high polyreactivity”.
With “QVQLVESGGGLVQAGGSLRLSCAASGRTLYGYTMGWYRQAPGQEREVVAAINAGGGSTYYADSVKGRFTSSRDNAKNTVYLQMNSLKPEDTAVYSCNARVRVRLGRNWSSYYYWGQGTQVTVSS” the “polyreactivity (PSR sort gate)” value was “high polyreactivity”.
With “QVQLVESGGGLVQAGGSLRLSCAASGRTLYIYAMGWYRQAPGKERELVAAITRRGDSTYYADSVKGRFTISRDNAKNTVYLQMNSLKPEDTAVYYCAADFQDTSSQYDPAYEYWGQGTQVTVSS” the “polyreactivity (PSR sort gate)” value was “low polyreactivity”.
With “QVQLVESGGGLVQAGGSLRLSCAASGRTLYRNDMGWYIQAPGKERELVARITWSGASTYYADSVKGRFTISRDNAKNSVYLQMKSLKTEDTAVYFCAALYLSRRYGPDDSYNFWGQGTQVTVSS” the “polyreactivity (PSR sort gate)” value was “high polyreactivity”.
For “QVQLVESGGGLVQAGGSLRLSCAASGRTLYVNAMGSYRQAPGKERELVARISSGSSTNYADSVKGRFTISRDNAKNTVYLQMNSLKPEHTAVYYCAARYTARRQSYGYWGQGTQVTVSS”, the “polyreactivity (PSR sort gate)” value was “high polyreactivity”.
In the case of “QVQLVESGGGLVQAGGSLRLSCAASGRTLYWYAMGWYRQAPGKERQLVAVISGSGASTYYADSVKGRFTISRDNAKNTVYLQMNSLKPEDTAVYYCNARDYRRYGRYHWQDYDYWGQGTQVTVSS”, the “polyreactivity (PSR sort gate)” value is reported as “high polyreactivity”.
With “QVQLVESGGGLVQAGGSLRLSCAASGRTLYYYAMGWYRQAPGKEMDLVASISRGGNTNYADSVKGRFTISRDNAKNSVYLQMYSLKPEDTAVYYCAAQYSPYSFSQYVYWGQGTQVTVSS” the “polyreactivity (PSR sort gate)” value was “high polyreactivity”.
In the case of “QVQLVESGGGLVQAGGSLRLSCAASGRTLYYYTMGWYRPAPGKERELVAAIRWSTGSTYYADSVKGRFTISRDNAKNTVYLQMNSLKPEDTAVYYCNAYRYQWAQSTEYDYWGQGTQVTVSS”, the “polyreactivity (PSR sort gate)” value is reported as “high polyreactivity”.
For “QVQLVESGGGLVQAGGSLRLSCAASGRTMNSNAKGSYRQAPGKEREFVAAITSGGSTNYADSVKGRFSLSRDNAKNTVYLQMTSLKPEDTAVYYCAVRGYWTIRCRRYYYWGHGTQVTVSS”, the “polyreactivity (PSR sort gate)” value was “high polyreactivity”.
With “QVQLVESGGGLVQAGGSLRLSCAASGRTSAIYDMGWYRQAPGKERDLVAAIDYSDGSTYYADSVKGRFTISRDNAKYTVYLQMNSLKPEDTAVYYCAADYDAIYLWWGYDYWGQGTQLTVSS” the “polyreactivity (PSR sort gate)” value was “low polyreactivity”.
For “QVQLVESGGGLVQAGGSLRLSCAASGRTSGFNTMGWYRPAPGKEREMVAAISFSGGSTYYADSVKGRFTISRDNAKNTVYLQMNSLKPEDTAVYYCNALYRYLYRSGDYWGQGTQVTVSS”, the “polyreactivity (PSR sort gate)” value was “low polyreactivity”.
For “QVQLVESGGGLVQAGGSLRLSCAASGRTSKVYAMGWYRQAPGTERELVAAITRGNTYYADSVKGRFTISRDNAKNTVYLQMNSLKPEDTAVYYCAADYRYWLSYFKKYDYWGQGTQVTVSS”, the “polyreactivity (PSR sort gate)” value was “high polyreactivity”.
With “QVQLVESGGGLVQAGGSLRLSCAASGRTSQEYAMGWYRQAPGKERELVAGITRRGGTTYYADSVKGRFTISRDNAKNTVYLQMNRLNPEDTAVYYCAKRYTHSFKYEYWGQCTQVTVSS” the “polyreactivity (PSR sort gate)” value was “high polyreactivity”.
For “QVQLVESGGGLVQAGGSLRLSCAASGRTSRDYAMGWYRQAPGKERELVAAIRWRGVSTYYADSVKGRFTISRDNAKNTVYLQMNSLKPEDTAVYYCAKRESVSTSAGKGAMDSWGQGTQVTVSS”, the “polyreactivity (PSR sort gate)” value was “high polyreactivity”.
For “QVQLVESGGGLVQAGGSLRLSCAASGRTSRFYAMGWYRQAPGKERELVARITTRGGSTYYADSVKGRFTISRDNAKNTVYLQMNSLKPEDTAVYYCNAERAGTYRYDYWGQGTQVTVSS”, the “polyreactivity (PSR sort gate)” value was “high polyreactivity”.
With “QVQLVESGGGLVQAGGSLRLSCAASGRTSRLYAMGWYRQAPGKERELVATITRSAGDTYYADSVKGRFTISRDNAKNTVYLQMNSLKPEDTAVYYCNARAAKWSRYDYWGQGTQVTVSS” the “polyreactivity (PSR sort gate)” value was “high polyreactivity”.
In the case of “QVQLVESGGGLVQAGGSLRLSCAASGRTSRRNAMGWYRQAPGKERELVAATSGSGTSTYYADSVKGRFTISRDNAKNTVYLQMNSLKPEDTAVYYCNTDTSRRAVQYDYWGQGTQVTVSS”, the “polyreactivity (PSR sort gate)” value is reported as “high polyreactivity”.
For “QVQLVESGGGLVQAGGSLRLSCAASGRTSRVNAMGWYRQAPGKERELVATITKSGGSTFYADSVKGRFTISRDNAKNTVYLQMNILKPEDTAVYYCNAGGVRATKGYDYWGQGTQVTVSS”, the “polyreactivity (PSR sort gate)” value was “low polyreactivity”.
With “QVQLVESGGGLVQAGGSLRLSCAASGRTSRVNAMGWYRQAPGKERELVATITKSGGSTFYADSVKGRFTISRDNPKNTVYLQMNILKPEDTAVYYCNAGGVRATKGYDYWGQGTQVTVSS” the “polyreactivity (PSR sort gate)” value was “low polyreactivity”.
For “QVQLVESGGGLVQAGGSLRLSCAASGRTSRYALGWYRQAPGKERELVAAISRNGGTTSYADSVKGRFTISRDNAKNTVYLQMNSLKPEDTAVYYCNAYSAFVPPTRGYYWGQGTQVTVSS”, the “polyreactivity (PSR sort gate)” value was “high polyreactivity”.
In the case of “QVQLVESGGGLVQAGGSLRLSCAASGRTSSVYARGWSRQAPGKEREWVAAITSSGGSTYYADSVKGRFTISRDNAKNTVYLQMNSLNPEDTAVYYCAAETYPVWGVAFYYWGQGTQVTVSS”, the “polyreactivity (PSR sort gate)” value is reported as “high polyreactivity”.
In the case of “QVQLVESGGGLVQAGGSLRLSCAASGRTSVSYAMGWYRQAPGKERELVASITSGGSTYYADSVKGRFTISRDNAKNTVYLQMNSLKPEDTAVYYCAARGRNVAGYKGGYWGQGTQVTVSS”, the “polyreactivity (PSR sort gate)” value is reported as “high polyreactivity”.
For “QVQLVESGGGLVQAGGSLRLSCAASGRTSWPYAMGWYRQAPGKERELVAGISRNGGRTYYADSVKGRFTISRDNAKNTVYLQMNSLKPEDTAVYYCNAYPPSRHDYWGQGTQVTVSS”, the “polyreactivity (PSR sort gate)” value was “high polyreactivity”.
With “QVQLVESGGGLVQAGGSLRLSCAASGRTSWVNAMGWYRQAPGKERELVAAIVSGGTTKYADSVKGRFTISRDNAKNTVYLQMNSLKPEDTAVYYCAVRYSKRSVYTYGFNYWGQGTQVTVSS” the “polyreactivity (PSR sort gate)” value was “high polyreactivity”.
In the case of “QVQLVESGGGLVQAGGSLRLSCAASGRTSYGYAMGWYRQAPGKERELVAGISRSGSSTYYADSVKGRFTISRDNAKNTVYLQMNSMKPEDNAVYYCNAARPFNRVPRQTWKMGYWGQGTQVTVSS”, the “polyreactivity (PSR sort gate)” value is reported as “high polyreactivity”.
In the case of “QVQLVESGGGLVQAGGSLRLSCAASGRTSYVYAMGWYRQAPGKERELVAAITSSGGSTYYADSVKGRFTISRDNAKNTVYLQMNSLKPEDTAVYYCAASRVRYSYGYPYYYWGQGTQVTVSS”, the “polyreactivity (PSR sort gate)” value is reported as “high polyreactivity”.
For “QVQLVESGGGLVQAGGSLRLSCAASGRTSYYAMGWYRQAPGKERELVAAINSGDSTTYADSVKGRFTISRDNAKNNVYLQMNSLKPEDTAVYYCATALYDWYSLEFDYWGQGTQVTVSS”, the “polyreactivity (PSR sort gate)” value was “low polyreactivity”.
For “QVQLVESGGGLVQAGGSLRLSCAASGRTSYYAMGWYRQAPGKETELVAAINSGDSPTDADSVKGRFTISRDNAKNTVYLQMNTQTPEDTAVYYCATALYDWYSLEFDYWGQGTQVTVSS”, the “polyreactivity (PSR sort gate)” value was “low polyreactivity”.
In the case of “QVQLVESGGGLVQAGGSLRLSCAASGRTSYYNTMGWYRPAPGKERELVAASTGRGDSTYYADSVKGRFTISRDNAKKTGYLQMNSLKPEDTAVYYCAADELHLLYRVSKFVDYNHWGQGTQVTVSS”, the “polyreactivity (PSR sort gate)” value is reported as “low polyreactivity”.
With “QVQLVESGGGLVQAGGSLRLSCAASGRTVGGNAMGWYRQAPGKERELVAAINRSGGTTYYADSVKGRFTISRDNAKNTVYLQMNSLKPEDTAVYYCAARRTVSATRMGYWGQGTQVTVSS” the “polyreactivity (PSR sort gate)” value was “high polyreactivity”.
For “QVQLVESGGGLVQAGGSLRLSCAASGRTVLVYTMGWYRQAPGKERELVAAISWSDGSTYYADSVKGRFTMSRDNAKNTVYLHMNSLKPEDTAVYYCAARTFSAFWRGGYDYWGQGTQVTVSS”, the “polyreactivity (PSR sort gate)” value was “low polyreactivity”.
With “QVQLVESGGGLVQAGGSLRLSCAASGRTVNAMGWYRQAPGKERELVAAINSGTSTYADSVKGRFTISRDNAKNTVYLQMNSLKPEDTAVYYCAKTYFWPFHGRFVGYDYWGQGTQVTVSS” the “polyreactivity (PSR sort gate)” value was “low polyreactivity”.
In the case of “QVQLVESGGGLVQAGGSLRLSCAASGRTVSSNAMGWYRQAPGKERELVASISFRGGRTYYADSVKGRFTISRDNAKNPVYLQMNSLKPEDTADYYCVSGTKRTGYGYWGQGTQVTVSS”, the “polyreactivity (PSR sort gate)” value is reported as “high polyreactivity”.
In the case of “QVQLVESGGGLVQAGGSLRLSCAASGRTVWSNAMGWYRQAPGKEREFVASISRTGVNTYYADSVKGRFTISRDYAKNSVYLQMNSLKPEDTAVYYCNVYSARRGVGTLARYSEYDYWGQGTQVTVSS”, the “polyreactivity (PSR sort gate)” value is reported as “high polyreactivity”.
With “QVQLVESGGGLVQAGGSLRLSCAASGRTVYSYAMGWYRQAPGKERELVAAISYTGASTFYADSVKGRFTISRDNAKNTVYLQMNSLKPEDTAVYYCAAESQPSYGETDEYWGQGTQVTVSS” the “polyreactivity (PSR sort gate)” value was “high polyreactivity”.
With “QVQLVESGGGLVQAGGSLRLSCAASGRTWFYAMGWYRQAPGKERELVAVISRSGASTNYADSVKGRFTISRDNAKNTVYLQMNSLKPEDTAVYYCAAGWRYRGGYWYPRLEYGYWGQGTQVTVSS” the “polyreactivity (PSR sort gate)” value was “high polyreactivity”.
In the case of “QVQLVESGGGLVQAGGSLRLSCAASGRTWSNAMGWYRQAPGKERELVAVITWDGVITYYADSVKGRFTISRDNAKNTVYLQMNSLKPEETAVYYCAATVYPGAGDYWGQGTQVTVSS”, the “polyreactivity (PSR sort gate)” value is reported as “high polyreactivity”.
With “QVQLVESGGGLVQAGGSLRLSCAASGRTYAYYAIGWYRQEPGKERELVAAISSGGSTYYADSVKGLFTISRDNAKNTVYLQMNSLKPEDTAVNYCATRDKQYYYWGQGTQVTLSS” the “polyreactivity (PSR sort gate)” value was “high polyreactivity”.
